Laboratory results: patent publication US20250257128A1 (DRAGONBOAT BIOPHARMACEUTICAL SHANGHAI, published 2025)
Several values for one entry are separate records, joined by “and”; a condition that tells them apart may be missing. Equal values may be shown once.

What was measured:
human CD47 [1] = molecular target: T1, human CD47 (human, UniProt Q08722 19-323); test: flow cytometry on human red blood cells, antibody at 15 µg/mL
T1 construct: whole, on cells; also called CD47 on red blood cells; endogenous CD47 on NUGC-4 cells
Experimental: (§1) Flow cytometry was used to determine whether the bispecific antibody was bound to red blood cells. Another anti-CD47 antibody F4AM4-IgG1 (abbreviated as F4AM4 in the accompanying drawings; the amino acid sequence of the heavy chain is SEQ ID NO: 24, and the amino acid sequence of the light chain is SEQ ID NO: 25) developed by the applicant was used as a positive control antibody.
(§2) The specific method was as follows: red blood cells were isolated from 1 mL of anticoagulant human blood, and the supernatant was aspirated following centrifugation. After the cells were rinsed twice with PBS, 1 mL of PBS was added to resuspend the red blood cells. The red blood cells were diluted to 1×10⁷/mL with PBS, pipetted at 50 μL/well and added to a 96-well round bottom cell culture plate. Then an equal volume of the serially diluted antibody to be tested was added, fully mixed, and incubated at 4° C. for 1 h. After the culture was rinsed with FACS buffer for three times, 0.5 μg of PE-labeled goat anti-human IgG Fc antibody (Abcam, ab98596) was added, followed by incubation at 4° C. for 1 h. Subsequently, the cells were rinsed with FACS buffer for three times and then resuspended by adding 200 μL of FACS buffer, and finally the amount of the antibody binding to the red blood cells (expressed as mean fluorescence intensity (MFI)) was measured by a flow cytometer (Beckman, CytoFLEX AOO-1-1102).

human CD47 [2] = molecular target: T1, human CD47; test: flow cytometry on human red blood cells, antibody at 150 µg/mL
Experimental: as §1, §2

human CD47 [3] = molecular target: T1, human CD47; test: flow cytometry, blocking of SIRPα-mFc binding to CD47 on hCLDN18.2-NUGC-4 cells
Experimental: (§3) The specific method was as follows: 1×10⁵ NUGC-4 cells or hCLDN18.2-NUGC-4 cells were taken and centrifuged at a low speed (300 g), and the supernatant was removed. The cells at the bottom of the centrifuge tube were rinsed once with a formulated FACS buffer (1×PBS buffer containing 2% FBS). Subsequently, the serially diluted antibody to be tested was added to the rinsed cells, which were then incubated for 1 h. After the cells were rinsed twice with FACS buffer, 100 μL of 1 μg/mL SIRPα-mFc (ACRO, SIA-H52A8) was added, followed by incubation at 4° C. for 1 h. After the cells were rinsed with FACS buffer for three times, 100 μL of 1:200 diluted PE-labeled goat anti-mouse Fc (Abcam, ab98742) was added as the secondary antibody, followed by incubation at 4° C. for 1 h. After centrifugation, the supernatant was removed, the cells were resuspended by adding 200 μL of FACS buffer, and finally the amount of SIRPα-mFc binding to the cells (expressed as mean fluorescence intensity (MFI)) was measured by a flow cytometer (Beckman, CytoFLEX AOO-1-1102).
Besides, due to the fact that the anti-CLDN18.2 single domain antibody NA3S-H1 was only bound to CLDN18.2, the antibody had no blocking effect.

human CD47 [4] = molecular target: T1, human CD47; test: flow cytometry, blocking of SIRPα-mFc binding to CD47 on NUGC-4 cells
Experimental: as §3

T1 sequence (Q08722 19-323): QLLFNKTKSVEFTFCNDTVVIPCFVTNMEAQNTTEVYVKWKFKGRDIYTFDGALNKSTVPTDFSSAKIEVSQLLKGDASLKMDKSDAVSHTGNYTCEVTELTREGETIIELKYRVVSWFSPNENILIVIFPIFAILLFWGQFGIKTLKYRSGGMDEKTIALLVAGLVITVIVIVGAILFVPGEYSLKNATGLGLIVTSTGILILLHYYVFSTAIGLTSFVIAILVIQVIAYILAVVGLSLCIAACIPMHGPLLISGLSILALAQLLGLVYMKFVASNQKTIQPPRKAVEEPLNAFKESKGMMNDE

Row | Binder | MFI (human CD47 [1]) [MFI] | MFI (human CD47 [2]) [MFI] | IC50 (human CD47 [3]) | IC50 (human CD47 [4])
1 | anti-CD47/anti-CLDN18.2 bispecific antibody B8 (bispecific antibody, human IgG1, kappa, IgG-like format, human IgG1 / kappa constant regions) heavy: not shown light: DIQMTQSPSSLSASVGDRVTITCRASQDISNHLNWYQQKPGKAPKLLIYYTSRIHSGVPSSFRGSGSGTDYTLTISSLQPEDIATYFCQQGYTLPFTFGSGTKLEIKRTVAAPSVFIFPPSDEQLKSGTASVVCLLNNFYPREAKVQWKVDNALQSGNSQESVTEQDSKDSTYSLSSTLTLSKADYEKHKVYACEVTHQGLSSPVTKSFNRGEC | 988 | 2140 |  | 
2 | anti-CD47/anti-CLDN18.2 bispecific antibody B10 (bispecific antibody, human IgG1, kappa, IgG-like format; NA3S-H1 VHH at the C-terminus of the heavy chain through Linker1) heavy: not shown light: DIQMTQSPSSLSASVGDRVTITCRASQDISNHLNWYQQKPGKAPKLLIYYTSRIHSGVPSSFRGSGSGTDYTLTISSLQPEDIATYFCQQGYTLPFTFGSGTKLEIKRTVAAPSVFIFPPSDEQLKSGTASVVCLLNNFYPREAKVQWKVDNALQSGNSQESVTEQDSKDSTYSLSSTLTLSKADYEKHKVYACEVTHQGLSSPVTKSFNRGEC | 534 | 2490 | 0.765 µg/mL and 4.48 nM | 
3 | anti-CD47/anti-CLDN18.2 bispecific antibody B12 (bispecific antibody, human IgG1, kappa, IgG-like format; NA3S-H1 VHH at the N-terminus of the heavy chain through Linker2 (GGGGS)) heavy: not shown light: DIQMTQSPSSLSASVGDRVTITCRASQDISNHLNWYQQKPGKAPKLLIYYTSRIHSGVPSSFRGSGSGTDYTLTISSLQPEDIATYFCQQGYTLPFTFGSGTKLEIKRTVAAPSVFIFPPSDEQLKSGTASVVCLLNNFYPREAKVQWKVDNALQSGNSQESVTEQDSKDSTYSLSSTLTLSKADYEKHKVYACEVTHQGLSSPVTKSFNRGEC | 1620 | 2530 |  | 
4 | anti-CD47 humanized antibody A7H3L3 (antibody, human IgG1, kappa, V domains shown, also called A7H3L3 monoclonal antibody; anti-CD47 monoclonal antibody A7H3L3) VH: QVQLVQSGAEVKKPGASVKVSCKASGFNIKDIYIYWVRQAPGQGLEWIGKIDPANGNTKYDQKFQGRATITADTSTNTAYLELSSLRSEDTAVYYCARGYGSGFAYWGQGTLVTVSS VL: DIQMTQSPSSLSASVGDRVTITCRASQDISNHLNWYQQKPGKAPKLLIYYTSRIHSGVPSSFRGSGSGTDYTLTISSLQPEDIATYFCQQGYTLPFTFGSGTKLEIKR | 463 | 608 |  | 
5 | anti-CD47 antibody F4AM4-IgG1 (antibody, V domains shown, Positive control anti-CD47 antibody developed by the applicant) VH: QVQLVQSGAEVKKPGASVKMSCKASGYTFTSSVMHWVRQAPGQGLEWIGYINPYTDGTKYAQKFQGRATLTSDKSTSTAYMEFSSLRSEDTAVYYCGRPYYGTRYGSWFAYWGQGTLVTVSS VL: DIQMTQSPSSLSASVGDRVTITCRASQDISNYLNWYQQKPGKAPKLLIYYTSRLHSGVPSRFSGSGSGTDYTLTISNLQPEDIATYYCQQGKNYPFTFGSGTKLEIKR |  |  | 0.056 µg/mL and 0.383 nM | 0.033 µg/mL and 0.226 nM
6 | anti-CD47/anti-CLDN18.2 bispecific antibody B9 (bispecific antibody, human IgG1, kappa, IgG-like format; NA3S-H1 VHH at the N-terminus of the light chain through Linker1) heavy: not shown light: QVQLVESGGGLVQPGGSLRLSCAASGSIFNIPVMGWYRQAPGKQRELVAGISTGGTTNYGDSVKGRFTISRDNAKNTVYLQMNSLKPEDTAVYYCNVLVVSGIGSTLEVWGQGTLVTVSSGGGGSGGGGSDIQMTQSPSSLSASVGDRVTITCRASQDISNHLNWYQQKPGKAPKLLIYYTSRIHSGVPSSFRGSGSGTDYTLTISSLQPEDIATYFCQQGYTLPFTFGSGTKLEIKRTVAAPSVFIFPPSDEQLKSGTASVVCLLNNFYPREAKVQWKVDNALQSGNSQESVTEQDSKDSTYSLSSTLTLSKADYEKHKVYACEVTHQGLSSPVTKSFNRGEC | 239 | 1220 |  | 
7 | anti-CD47/anti-CLDN18.2 bispecific antibody B11 (bispecific antibody, human IgG1, kappa, IgG-like format; NA3S-H1 VHH at the N-terminus of both heavy and light chains) heavy: not shown light: QVQLVESGGGLVQPGGSLRLSCAASGSIFNIPVMGWYRQAPGKQRELVAGISTGGTTNYGDSVKGRFTISRDNAKNTVYLQMNSLKPEDTAVYYCNVLVVSGIGSTLEVWGQGTLVTVSSGGGGSGGGGSDIQMTQSPSSLSASVGDRVTITCRASQDISNHLNWYQQKPGKAPKLLIYYTSRIHSGVPSSFRGSGSGTDYTLTISSLQPEDIATYFCQQGYTLPFTFGSGTKLEIKRTVAAPSVFIFPPSDEQLKSGTASVVCLLNNFYPREAKVQWKVDNALQSGNSQESVTEQDSKDSTYSLSSTLTLSKADYEKHKVYACEVTHQGLSSPVTKSFNRGEC | 238 | 847 |  | 
8 | antibody 1F8 (the 1F8 antibody in WO 2018075857 A1) (antibody, V domains shown) VH: KVQLVESGGGLVKPGGSLRLSCAASGFTFSNAWMNWVRQAPGKGLEWVGRIKRKTDGETTDYAAPVKGRFSISRDDSKNTLYLQMNSLKTEDTAVYYCAGSNRAFDIWGQGTMVTVSA VL: DIVMTQSPDSLAVSLGERATINCKSSQSVLYSSNNRNYLAWYQQKPGQPPKLLINQASTRASGVPDRFSGSGSGTEFTLIISSLHAEDVAIYYCQQYYTPPLAFGGGTKLEIK |  |  | 12 µg/mL and 82.3 nM | 15.4 µg/mL and 106 nM
